In doi:10.1101/2024.06.13.598860, “The Mlh1-Pms1 endonuclease uses ATP to preserve DNA discontinuities as strand discrimination signals to facilitate mismatch repair”:

Legend:
[1] = molecular target: T1, Mlh1-Pms1 (Saccharomyces cerevisiae (yeast), UniProt P38920;P14242 1-769;1-873); test: EMSA; 120 mM NaCl, no ATP; 20 mM HEPES-KOH (pH not given), 0.1 mM DTT, 2 mM MgCl2, 40 ug/mL BSA, 6% glycerol; plasmid DNA 3.8 nM, 10 min room temperature, agarose EMSA; oligonucleotides plus 120 mM NaCl, 10 min 4 C, 4% PAGE; conditions: protein: recombinant, copies: 1;1, label: 5'-32P on CMO169
[2] = molecular target: T1, Mlh1-Pms1; test: EMSA; 120 mM NaCl, 0.5 mM ATP; 20 mM HEPES-KOH (pH not given), 0.1 mM DTT, 2 mM MgCl2, 40 ug/mL BSA, 6% glycerol; plasmid DNA 3.8 nM, 10 min room temperature, agarose EMSA; oligonucleotides plus 120 mM NaCl, 10 min 4 C, 4% PAGE; conditions: protein: recombinant, copies: 1;1, label: 5'-32P on CMO169
[3] = nicked duplex, blunt ends, 1:2 1:3, nick between strands 2 and 3

T1 sequence (P38920 whole entry, chain 1 of 2): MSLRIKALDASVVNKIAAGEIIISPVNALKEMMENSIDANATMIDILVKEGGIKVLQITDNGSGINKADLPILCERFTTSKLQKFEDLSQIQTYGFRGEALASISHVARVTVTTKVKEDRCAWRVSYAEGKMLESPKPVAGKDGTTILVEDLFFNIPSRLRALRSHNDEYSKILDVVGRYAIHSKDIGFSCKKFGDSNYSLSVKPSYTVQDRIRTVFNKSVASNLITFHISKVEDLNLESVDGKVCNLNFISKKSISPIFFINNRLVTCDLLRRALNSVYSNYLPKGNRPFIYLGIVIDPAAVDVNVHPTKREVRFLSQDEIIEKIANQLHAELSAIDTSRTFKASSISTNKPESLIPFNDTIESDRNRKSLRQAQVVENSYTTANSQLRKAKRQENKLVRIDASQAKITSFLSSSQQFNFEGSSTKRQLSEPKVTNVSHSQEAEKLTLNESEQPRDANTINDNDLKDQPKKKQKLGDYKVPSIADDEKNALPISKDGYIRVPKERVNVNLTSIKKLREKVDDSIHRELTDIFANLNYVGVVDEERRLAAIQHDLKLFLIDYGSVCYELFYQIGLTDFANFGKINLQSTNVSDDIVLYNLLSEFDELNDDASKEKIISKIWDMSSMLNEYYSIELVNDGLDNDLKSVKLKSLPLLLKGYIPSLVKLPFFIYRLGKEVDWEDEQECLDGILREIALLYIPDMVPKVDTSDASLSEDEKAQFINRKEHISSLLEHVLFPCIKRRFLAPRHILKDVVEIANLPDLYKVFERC
T1 sequence (P14242 whole entry, chain 2 of 2): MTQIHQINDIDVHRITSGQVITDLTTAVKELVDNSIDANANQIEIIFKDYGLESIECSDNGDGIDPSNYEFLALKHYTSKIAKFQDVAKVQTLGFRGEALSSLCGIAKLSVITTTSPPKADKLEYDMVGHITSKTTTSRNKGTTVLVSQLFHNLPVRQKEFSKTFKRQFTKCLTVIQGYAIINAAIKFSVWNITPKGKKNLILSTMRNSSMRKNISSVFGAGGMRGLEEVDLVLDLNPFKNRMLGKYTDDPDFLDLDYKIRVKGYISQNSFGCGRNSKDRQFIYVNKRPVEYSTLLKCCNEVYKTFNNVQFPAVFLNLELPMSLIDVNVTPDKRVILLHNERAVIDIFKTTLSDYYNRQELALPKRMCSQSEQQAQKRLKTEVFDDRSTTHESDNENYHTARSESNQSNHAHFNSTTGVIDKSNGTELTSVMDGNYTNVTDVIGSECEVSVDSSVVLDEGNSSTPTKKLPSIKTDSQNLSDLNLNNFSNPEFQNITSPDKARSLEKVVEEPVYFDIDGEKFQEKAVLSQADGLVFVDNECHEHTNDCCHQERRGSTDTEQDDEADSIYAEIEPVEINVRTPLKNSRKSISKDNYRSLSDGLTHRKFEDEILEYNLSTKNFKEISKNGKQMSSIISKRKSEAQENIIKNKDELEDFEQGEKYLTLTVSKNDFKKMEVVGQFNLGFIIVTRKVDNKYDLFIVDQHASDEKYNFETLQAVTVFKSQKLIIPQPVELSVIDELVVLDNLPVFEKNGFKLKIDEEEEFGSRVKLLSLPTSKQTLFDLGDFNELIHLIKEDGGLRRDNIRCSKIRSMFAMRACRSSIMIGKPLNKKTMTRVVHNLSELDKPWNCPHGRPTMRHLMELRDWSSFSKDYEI

B1: intact 75-mer duplex (dsDNA)
DNA 1: TCGACCTAAGTCTAGCAGGTCACGTCACGCTACCGAATTCTGACTTGCTAGGACATCTTTGCTCACGTTGACCCA
DNA 2: TGGGTCAACGTGAGCAAAGATGTCCTAGCAAGTCAGAATTCGGTAGCGTGACGTGACCTGCTAGACTTAGGTCGA
Kd ([1]; blunt): 96 ± 20 nM | Kd ([2]; blunt): 79 ± 8 nM

B2: discontinuous 75-mer duplex (single strand break) (dsDNA)
DNA 1: B1 DNA 1
DNA 2: TGGGTCAACGTGAGCAAAGATGTCCTAGCAAGTCAGA
DNA 3: ATTCGGTAGCGTGACGTGACCTGCTAGACTTAGGTCGA
Kd [1, 3]: 79 ± 3 nM | Kd [2, 3]: 77 ± 6 nM
